From patent publication US20190351068A1, “COMPOSITIONS AND METHODS FOR DRUG DELIVERY” (priority 2017, published 2019)

How the values were obtained:
choline transporter = assay: Brain uptake of Cy5.5-labeled n(Nimo) after pre-injection of choline-transporter inhibitor; format: in vivo, mice; details: 1.25, 2.5 or 5 μg/kg intraperitoneal 20 mins before n(Nimo); 4 hours after injection
Description: The BBB penetration of the nanocapsules can be attributed to their transcytosis mediated by the choline and acetylcholine receptors. Glioma-bearing mice were intraperitoneally injected with 1.25, 2.5 or 5 μg/kg of choline-transporter inhibitor, hemicholinium-3 (HC-3), 20 mins prior to the injection of Cy5.5-labeled n(Nimo). FIGS. 8A and 8B depict the in-vivo bioluminescent images of the orthotopic U87-EGFRwt glioma xenograft mice and the ex-vivo fluorescent images of the brains 4 hours after injection. […] This method provides an effective antibody delivery strategy for brain tumor treatment.

[1] = Brain fluorescence after intravenous injection of fluorescence-labeled BSA conjugates; format: in vivo, Balb/c mice; details: 5.0 mg/kg intravenous, one day after injection
Description: Protein conjugates were synthesized by conjugating polymer, poly(2-methacryloyloxyethyl phosphorylcholine) (PMPC), to fluorescence-labeled bovine serum albumin (BSA). The BSA conjugates were injected to Balb/c mice via intravenously at a dose of 5.0 mg/kg. One date after the intravenous injection, fluorescence intensity of the mouse brains was compared.

[2] = set-up: species or system rhesus macaque monkey; details: rhesus monkey, in vivo
Description: To evaluate the CNS delivery efficiency, Rituximab nanoparticles were administrated to non-human primates (rhesus macaque monkey) at a dose of 5.0 mg/kg via intravenous injection. After intravenous administration, plasma was collected at 1, 2, 3, 5, 7, 10, 14 and 17 days post injection, and CSF was collected at day 3, 10 and 17. […] In sharp contrast, Rituximab in CSF was undetectable by week 2 for the monkey administrated with native Rituximab.

C[N+]1(C)CCOC(O)(c2ccc(-c3ccc(C4(O)C[N+](C)(C)CCO4)cc3)cc2)C1.[Br-].[Br-] (centres unmarked) [HC-3, hemicholinium-3]
effect on fluorescent intensity of glioma-bearing brain after Cy5.5-labeled n(Nimo) (choline transporter): significantly reduces the fluorescent intensity

BSA conjugates: poly(2-methacryloyloxyethyl phosphorylcholine) (PMPC) conjugated to fluorescence-labeled bovine serum albumin
brain fluorescence intensity relative to mice injected with PBS [1]: 6 times | brain fluorescence intensity relative to mice injected with native BSA [1]: 4 times

Rituximab
Rituximab in CSF [2]: undetectable | CSF concentration compared with n-Rituximab ([2]; iv): significantly lower CSF concentration
